Laboratory results published in US20090055975A1.

Biological target: receptor on the pea aphid (Acyrthosiphon pisum) gut epithelium
Experiment: cell-based or functional assay

Molecule | Detection of PEMV RNA in the aphid hemocoel, 1-10 min (No. of positive/No. of tested) (positive samples of 4 tested) | Detection of PEMV RNA in the aphid hemocoel, 11-20 min (No. of positive/No. of tested) (positive samples of 4 tested) | Detection of PEMV RNA in the aphid hemocoel, 21-30 min (No. of positive/No. of tested) (positive samples of 4 tested) | time of feeding on virus-infected plants until viral RNA is detected in hemolymph [min] | Detection of PEMV RNA in the aphid hemocoel, 1-10 min (No. of positive/No. of tested) (positive samples of 6 tested) | Detection of PEMV RNA in the aphid hemocoel, 11-20 min (No. of positive/No. of tested) (positive samples of 6 tested) | Detection of PEMV RNA in the aphid hemocoel, 21-30 min (No. of positive/No. of tested) (positive samples of 6 tested) | Detection of PEMV RNA in the aphid hemocoel, 31-40 min (No. of positive/No. of tested) (positive samples of 6 tested) | Detection of PEMV RNA in the aphid hemocoel, 41-50 min (No. of positive/No. of tested) (positive samples of 6 tested) | Detection of PEMV RNA in the aphid hemocoel, 51-60 min (No. of positive/No. of tested) (positive samples of 6 tested) | Detection of PEMV RNA in the aphid hemocoel, 61-75 min (No. of positive/No. of tested) (positive samples of 2 tested) | Detection of PEMV RNA in the aphid hemocoel, 76-90 min (No. of positive/No. of tested) (positive samples of 2 tested)
control phage PhDC6 displaying control peptide C6 | 0 | 0 | 2 | 30 | – | – | – | – | – | – | – | –
ATCSKKYPRSPCMA (peptide, not shown: large carriers) [phage PhD3.1 displaying peptide GBP3.1] | – | – | – | 60 | 0 | 0 | 0 | 0 | 0 | 1 | 0 | 0
